Changes are numbered by the printed parent chain.
B1: Group 47 representative clone F083-308, Fab-PP-type antibody (Fab, V domains shown)
VH: QVQLVQSGAEVKKPGSSVKVSCKASGGIFRSHAISWVRQAPGQGLEWMGGIIAIFGTTHYAQQFQGRVTITADESTSTVYMELSTLRSEDTAVYYCARGPNYFESYFDNWGQGTLVTVSS
VL: EIVLTQSPATLSLSPGERATLSCRASQTISSYLAWYQQKPGQAPRLLIYGASNRATGIPARFSGSGSGTDFTLTINSLEPEDFAVYYCQQRSSWPPITFGQGTRLEIK
B2: Group 52 representative clone F083-328, Fab-PP-type antibody (Fab, V domains shown)
VH: QVQLVQSGAEVKKPGSSVKLSCKASGGTLRSYALSWVRQAPGEGLEWMGGISAIFNTATYAQNVQGRVTITADESTNTFYLEVSSLRSDDTAVYYCATSGTYYVSFFDYWGQGTLVTVSS
VL: DIVLTQSPSTLSASVGDRVTLTCRASQSIGSLMAWYQQQPGKPPKLLIYRASNLETGVPSRFTGSGSGTEFALTISSLQPDDVGTYYCQHFKTFSRTFGQGTKVEIK
B3: Group 42 representative clone F083-249, Fab-PP-type antibody (Fab, V domains shown)
VH: QVQLVQSGSEVKKPGSSVKVSCKASGVTFSSYAISWVRQAPGQGLEWMGGISPMFGTTRYAQKFQGRVTITADESTRTGFMELSSLRSGDTAVYYCARSPTYYPGALDMWGQGTTVTVSS
VL: DVVMTQSPSLLSASVGDRVTITCRASQAIANFVSWFQQKPGEAPKSLIHAASTLQGGVPPRFSGSGYGAVFTLTITNLQPEDFATYFCQQYNSLPFTFGPGTDVEVR
B4: Group 3 representative clone F081-281, Fab-PP-type antibody (Fab, V domains shown)
VH: QVQLVQSGSEVKKPGSSVKVSCSFKASGGIISKYAITWVRQAPGQGLEWMGGIIAIFGSTNYAQKFQGRLTITSDESTSTAYMELSSLTSEDTAVYYCGRGPHYYESHLDYWGQGTLVTVSS
VL: EIVLTQSPGTLSLSPGERATLSCRASQGMSSSFLAWYQQKPGQPPRLLISGASTRATGIPDRFSGSGSGTDFTLTINRLEPEDFAVYYCQQYGSSPRTFGQGTKVEIK
B5: Group 37 representative clone F083-311, Fab-PP-type antibody (Fab, V domains shown)
VH: QVQLVQSGSEVKKPGSSVKVSCKASGGIFRTNAISYVRQAPGQGLEWMGGITAIFGTPNYAQKFQGRVTIIADESTSTVYMELGSLTSEDTAVYYCATSGTYYVSYFDSWGQGTLVTVSS
VL: DIVMTQSPGTLTLSPGERATLSCRASQSLYSSHLAWYQQKPGQPPRLLIYGASTRAPGTPDRFSGSGSGTDFTLTITALDPEDSAVYYCQQYGSSPITFGQGTRLEIK
B6: Group 1 representative clone F080-227, Fab-PP-type antibody (Fab, V domains shown)
VH: QVQLQESGAEVKKPGSSVKVSCKASGGIFRRNAISWVRQAPGQGLEWMGGIIAIFGTANYAQKFQGRVTITADESTSTVYMELSSLRPEDTAVYYCARGPNYYENFFDYWGQGTLVTVSS
VL: DIVMTQSPSSLSASVGDRLDLTCRASQDIANSLAWYKQRPGKAPELLVFGASRLEGGVPSRFSGTRAGTDFTLTISSLQPEDLGTYFCQQYFSFPRTFGQGTTLDLR
B7: Group 35 representative clone F082-117, Fab-PP-type antibody (Fab, V domains shown)
VH: QVQLVQSGSEVKKPGSSVKVSCKSSGGILRRSAISWVRQAPGQGLEWMGGILAIFGTTKYAQKFQGRITITADESTNTVHMELSSLRPDDTAVYYCAGGPHYYVSYFDSWGQGTLVTVSS
VL: DIQMTQSPATLSLSPGERATLSCRASQSVRSYLAWYQQKPGQAPRLLIYDASNRATGIPARFSGSGSGTEFTLTISRLEPEDFAVYYCQQRSNWLFTFGPGTKVDFK
B8: Group 48 representative clone F083-389, Fab-PP-type antibody (Fab, V domains shown)
VH: QVQLVQSGAEVKKPGSSVKVSCKASGDIFNKFAITWVRQAPGQGLEWMGGITALFATTSYAQKFQDRVTINWDESTTTAFMELSSLRFEDTAVYYCARGPNYYETYLDNWGQGTLVTVSS
VL: EIVLTQSPTILSASVGDRVTITCRASQSISKWLAWYQQKPGKVPKLLIYMASTLESGVPSRFSGSGSGSEFTLTISSLQPGDFATYYCQQYNSYPRTFGQGTKVEINV
B9: Group 39 representative clone F082-237, Fab-PP-type antibody (Fab, V domains shown)
VH: QVQLVQSGAEVKKPGSSVKVSCKASGGIFNKYGISWVRQAPGQGLEWMGGILAIFGTTNYAQKFQGRVTISADESSTTVYMELSSLTSEDTAVYYCARGNTYYSSYFDQWGQGTLVTVSS
VL: QSVLTQPPSVSVAPGQTATITCGGDKIGTGPVHWYQQMPGRAPVLLIYASTHRPSRIPERFSGSKSDNTATLSISGVGVGDEADYYCQMWDSSSVHPIVFGGGTKLTVLS
B10: Group 54 representative clone F083-354, Fab-PP-type antibody (Fab, V domains shown)
VH: B9 VH with A9S, K31S, S71T, E74D, T77K, N100S
VL: DIQMTQSPSSLSASVGDRVTITCRASQGIRNSLAWYQQKPGQVPKLLIYSATTLRSGVPYRFSGSGSGTDFTLTISGLQPEDVGTYFCHRYDSAPLTFGGGTRVALK
B11: Group 55 representative clone F083-305, Fab-PP-type antibody (Fab, V domains shown)
VH: EVQLVESGAEVKKPGSSVKVSCKASGSIFSNYAISWVRQAPGQGLEWMGGIVPMFGTTRFAQKFQGRVTITADESRSTAYMELNNLISEDTAVYYCARAPLIYNWYFDLWGRGTLVTVSS
VL: EIVLTQSPSFVSASVGDRVSITCRASQGISSWLAWYQQKPGKAPRLLIYGASNLQSGVPSRFSGSGSGTDYTLTINSLQPEDFATYYCQQARTFPVTFGQGTKLEIK
B12: Group 56 representative clone F083-318, Fab-PP-type antibody (Fab, V domains shown)
VH: B11 VH with E6Q, K23Q, S35N, M54I, V68L, S75P, F107Y
VL: EIVLTQSPSSLSASVGDRVTITCRASQGISNYLAWYQQKPGKVPKLLIYAASTLQSGVPSRFSGSGSGTDFTLTISSLQPEDVATYYCQKYNSAPHTFGPGTKVDIK

Tests used:
Assay in all cases: cell-based or functional assay
[1] = target: Influenza virus A/California/7/2009pdm (H1N1pdm) (Influenza A virus A/California/7/2009pdm (H1N1pdm))
[2] = target: Influenza virus A/Indonesia/5/2005/PR8-IBCDC-RG2 (H5N1) (Influenza A virus A/Indonesia/5/2005/PR8-IBCDC-RG2 (H5N1))
[3] = target: Influenza virus A/Suita/1/2009pdm (H1N1 2009 pandemic) (Influenza A virus A/Suita/1/2009pdm (H1N1pdm))
[4] = target: Influenza virus A/Panama/2007/1999 (H3N2) (Influenza A virus A/Panama/2007/1999 (H3N2))
[5] = target: Influenza virus A/Brisbane/59/2007 (H1N1) (Influenza A virus A/Brisbane/59/2007 (H1N1))

Row | Binder | HI activity [1] [µg/mL] | Neutralizing activity (%) at 100 µg/ml [2] [%] | Neutralizing activity (%) at 250 µg/ml [2] [%] | Neutralizing activity (%) at 100 µg/ml [3] [%] | Neutralizing activity (%) at 250 µg/ml [3] [%] | Neutralizing activity (%) at 100 µg/ml [4] [%] | Neutralizing activity (%) at 250 µg/ml [4] [%] | HI activity [5] [µg/mL] | Neutralizing activity (%) at 100 µg/ml [5] [%] | Neutralizing activity (%) at 250 µg/ml [5] [%]
1 | B1 | > 160 | 29.4 | 49.4 | 97.7 | 100 | 1.4 | -6.8 | > 160 | 100 | 100
2 | B2 | > 160 | 86.9 | 93.2 | 100 | 100 | 9.6 | 5.5 | > 160 | 100 | 100
3 | B3 | > 160 | 96.5 | 98.2 | 100 | 97.7 | 15.8 | 34.2 | > 160 | 100 | 100
4 | B4 | > 160 | 81.8 | 85.9 | 100 | 100 | -11.6 | -8.9 | > 160 | 98 | 100
5 | B5 | > 160 | 90 | 97.1 | 93 | 100 | -8.9 | 5.5 | > 160 | 100 | 100
6 | B6 | > 160 | 67.6 | 52.9 | 100 | 100 | -0.7 | -0.7 | > 160 | 96 | 98
7 | B7 | > 160 | 94.1 | 95.9 | 100 | 100 | 3.4 | -4.8 | > 160 | 100 | 100
8 | B8 | > 160 | 54.6 | 60.8 | -18.3 | 100 | -0.7 | 19.9 | > 160 | 98 | 100
9 | B9 | > 160 | 31.2 | 41.2 | 95.3 | 100 | -2.7 | 15.8 | > 160 | 48.7 | 64.5
10 | B10 | > 160 | 66.4 | 80.7 | 100 | 94.2 | -0.7 | -11 | > 160 | 96.1 | 100
11 | B11 | > 160 | 2.4 | 22.4 | 88.3 | 69.5 | -17.1 | -6.8 | > 160 | 96.1 | 96.1
12 | B12 | > 160 | -9.5 | 1.7 | 13.5 | 27.9 | 7.5 | 7.5 | > 160 | 84.2 | 92.1
